Test results reported in US20260176336A1 (MESTAG THERAPEUTICS, published 2026).

Key:
[1] = molecular target: T1, human FAP expressed on cells (transfected HEK293; FAP-CHO-K1 recombinant cell line, BPS cat no. 79947) (human, UniProt Q12884 1-760); assay: flow cytometry, HEK293-FAP overexpressing cells
T1 construct: also called HuFAP-HEK293; Hek-FAP

[2] = molecular target: T2, human LTBR endogenously expressed on cells (HepG2, A549, A375, HCC1187, RPMI-7951, primary human breast CAFs) (human, UniProt P36941 31-435); assay: cell-based or functional assay
T2 sequence (P36941 31-435): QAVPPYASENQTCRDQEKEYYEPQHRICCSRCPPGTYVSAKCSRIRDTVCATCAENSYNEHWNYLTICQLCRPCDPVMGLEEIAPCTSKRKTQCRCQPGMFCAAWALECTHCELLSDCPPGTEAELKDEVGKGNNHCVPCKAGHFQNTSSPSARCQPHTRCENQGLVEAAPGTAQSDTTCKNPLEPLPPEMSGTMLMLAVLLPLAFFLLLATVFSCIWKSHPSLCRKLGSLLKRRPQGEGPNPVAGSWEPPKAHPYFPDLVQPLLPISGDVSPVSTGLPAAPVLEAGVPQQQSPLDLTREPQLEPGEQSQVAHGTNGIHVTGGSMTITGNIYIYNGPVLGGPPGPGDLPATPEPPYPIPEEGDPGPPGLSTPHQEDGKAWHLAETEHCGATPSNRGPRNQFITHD

[3] = molecular target: T2, human LTBR endogenously expressed on …; assay: cell-based or functional assay; remark: listed apart in the source
[4] = molecular target: T2, human LTBR endogenously expressed on …; assay: cell-based or functional assay; remark: listed apart in the source
[5] = molecular target: T3, cyno FAP His (Acro), recombinant protein (cynomolgus (Macaca fascicularis), UniProt Q12884 26-760 (human entry)); assay: SPR (Carterra LSA) as in Example 3.6, antibody captured, FAP as analyte; * value outside instrument specifications
T3 construct: bought protein used as analyte on Carterra LSA
Description: (§1) Binding of anti-FAP antibodies to human and cynomolgus FAP was investigated by Surface Plasmon Resonance (SPR) on Carterra LSA. An EC30M chip was used to capture the test antibodies. The chip was activated for bioconjugation using EDC and sNHS in MES pH 5.5 to prepare the chip for amine coupling. Goat anti-human IgG Fc antibody was then captured to the chip via incubation for 10 minutes. Excess conjugation sites were quenched with 1M Ethanolamine pH 8. To measure monovalent binding kinetics, antibodies were printed/spotted onto the chip and allowed to bind to the goat antibody, followed by subsequent washing. After the preparation, the printed chip was exposed to repeated rounds of association and dissociation with increasing analyte concentrations. In this work, recombinant proteins (Human FAP (Acro) or cyno FAP His (Acro)) were serially diluted across a range starting at 1500 nM with 3-fold dilutions and 10 points. The curves were fitted to global fit in a 1:1 binding model to obtain KD values. The binding affinity to both human and cynomolgus FAP is reported in.

[6] = molecular target: Human FAP (Acro), recombinant protein (human, UniProt Q12884 26-760); assay: as above
Description: as §1

[7] = molecular target: T2, human LTBR endogenously expressed on …; assay: flow cytometry, A375 cells
[8] = molecular target: T2, human LTBR endogenously expressed on …; assay: cell-based or functional assay; remark: listed apart in the source
[9] = molecular target: T4, cyno LTBR His (R&D), recombinant protein (cynomolgus (Macaca fascicularis), UniProt P36941 31-227 (human entry), limits assumed); assay: SPR (Carterra LSA) as in Example 2.6, antibody captured, LTBR as analyte
T4 construct: bought protein used as analyte on Carterra LSA
T4 sequence (P36941 other isoform, or with tags, fused parts or gaps limits assumed): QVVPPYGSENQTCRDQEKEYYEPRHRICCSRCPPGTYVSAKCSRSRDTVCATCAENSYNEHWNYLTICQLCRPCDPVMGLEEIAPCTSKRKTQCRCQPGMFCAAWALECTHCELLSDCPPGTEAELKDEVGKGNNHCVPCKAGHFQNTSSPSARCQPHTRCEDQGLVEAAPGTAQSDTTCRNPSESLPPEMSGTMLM
Description: (§2) The binding of anti-LTBR antibodies to human and cynomolgus LTBR was investigated by Surface Plasmon Resonance (SPR) on Carterra LSA. An EC30M chip was used to capture the test antibodies. Activation with EDC and sNHS occurred in MES pH 5.5 to prepare the chip for amine coupling. Goat anti-human IgG Fc antibody was then captured to the chip via incubation for 10 minutes. Excess conjugation sites were quenched with 1M Ethanolamine pH 8. To measure monovalent binding kinetics, antibodies were printed/spotted onto the chip and allowed to bind to the goat antibody, followed by subsequent washing. After the preparation, the printed chip was exposed to repeated rounds of association and dissociation with increasing analyte concentrations. In this work, recombinant proteins (Human LTBR (Acro) or cyno LTBR His (R&D)) were serially diluted across a range starting at 1500 nM with 3-fold dilutions and 10 points. The curves were fitted to global fit in a 1:1 binding model to obtain KD values. The binding affinity to both species is reported.

[10] = molecular target: Human LTBR (Acro), recombinant protein (human, UniProt P36941 31-227, limits assumed); assay: as above
Chain of Human LTBR (Acro), recombinant protein (P36941 31-227 limits assumed): as the sequence (P36941 other isoform, or with tags, fused parts or gaps limits assumed) above, with V2A, G7A, R24Q, S45I, D163N, R181K, S184L, S186P counted along it
Description: as §2

[11] = molecular target: T2, human LTBR endogenously expressed on …; assay: cell-based or functional assay; remark: listed apart in the source
[12] = molecular target: T1, human FAP expressed on cells …; assay: flow cytometry, FAP-CHO-K1 cells
Description: (§3) In short, 1×10⁶ cells were resuspended in the FACS buffer (1% BSA, 0.1% Sodium Azide in PBS), and 50 μl was added to each well (5×10⁴ cells/well) of a 96-U bottom plate. The cells were washed once and resuspended in 50 μl/well of FACS buffer containing a 1:3, 11-point series dilutions of constructs 4.1-4.6 and clones 4.8-4.9 followed by 1 h incubation at 4° C. […] Next, cells were washed and resuspended in FACS buffer and read on Beckman Coulter CytoFLEX. The data were analysed using FloJo V10 and GraphPad Prism v9. Clone 4.7 was tested for binding to A375 (LTBR positive cell line) and the HEK293-FAP overexpressing cell line, as described in examples 2.4 and 3.5. The EC50 values can be found in.

[13] = molecular target: T5, Biotinylated hLTBR-His-Avitag (Acro, cat no LTR-H82E9-25 µg) (human, UniProt P36941 31-227, biotinylated (Avitag)); assay: BLI (Octet), biotinylated LTBR on SA sensor, antibody as analyte
T5 construct: bought protein loaded on SA Streptavidin biosensors
T5 sequence (P36941 31-227 limits assumed): as the sequence (P36941 other isoform, or with tags, fused parts or gaps limits assumed) above, with V2A, G7A, R24Q, S45I, D163N, R181K, S184L, S186P counted along it
Description: Briefly, Biotinylated hLTBR-His-Avitag (Acro, cat no LTR-H82E9-25 μg) was loaded on SA Streptavidin biosensors (Fortebio) in kinetics buffer (ForteBio) followed by a 2-fold dilution series starting at 50 nM of FAP/LTBR bispecific antibodies. Binding kinetics were studied in a 1× Kinetics buffer where the association was allowed for 100 seconds, followed by dissociation for 300 seconds. Data generated were referenced by subtracting a parallel buffer blank, the baseline was aligned with the y-axis, inter-step correlation by alignment against dissociation was performed, and the data were smoothed by a Savitzky-Golay filter in the data analysis software. The processed data were fitted using a 1:1 Langmuir binding model with R\hat{ }2 as a measurement of fitting accuracy. The KD and R\hat{ }2 values can be found in.

[14] = molecular target: T2, human LTBR endogenously expressed on …; assay: flow cytometry, A549 cells
Description: as §3

[15] = molecular target: cynomologus recombinant LTBR (Octet, Example 4.8) (cynomolgus (Macaca fascicularis), UniProt P36941 31-227 (human entry), limits assumed); assay: BLI (Octet), cyno LTBR immobilised on ARG sensor, antibody at 25 nM
Chain of cynomologus recombinant LTBR (Octet, Example 4.8) (P36941 other isoform, or with tags, fused parts or gaps limits assumed): as the sequence (P36941 other isoform, or with tags, fused parts or gaps limits assumed) above
Description: A 2-fold series dilution starting at 50 nM of cynomologus recombinant LTBR was immobilised on the surface of ARG biosensors (Fortebio), followed by FAP/LTBR bispecific at 25 nM. Binding kinetics were studied in a 1× Kinetics buffer where the association was allowed for 180 seconds, followed by dissociation for 100 seconds. Sensor tips were regenerated using ethylene glycol. Data generated were referenced by subtracting a parallel buffer blank, the baseline was aligned with the y-axis, inter-step correlation by alignment against dissociation was performed, and the data were smoothed by a Savitzky-Golay filter in the data analysis software. The processed data were fitted using a 1:1 Langmuir binding model with R\hat{ }2 as a measurement of fitting accuracy. The KD values can be found in.

[16] = molecular target: T6, human FAP (Acro, cat no FAP-H82Q6) (human, UniProt Q12884 26-760); assay: BLI (Octet), antibody captured by anti-Fc, FAP as analyte; * value outside instrument specifications; avid binding to dimeric FAP; value flagged as outside instrument specifications
T6 construct: 'FAP is naturally a dimeric antigen'
Description: Binding to recombinant FAP proteins was investigated by Bio-Layer Interferometry (BLI) using the Octet instrument. Using standard amine coupling chemistry, an anti-Fc antibody was immobilised on the surface of ARG biosensors (Fortebio). The FAP/LTBR bispecific antibodies were loaded on the previously coated surface with anti-Fc capture antibody, followed by a 2-fold series dilution starting at 50 nM of either cyno FAP (Acro, cat no FAP-C82Q5) or human FAP (Acro, cat no FAP-H82Q6). Binding kinetics were studied in a 1× Kinetics buffer where the association was allowed for 200 seconds, followed by dissociation for 400 seconds. Sensor tips were regenerated using 10 mM Glycine pH 2.0. Data generated were referenced by subtracting a parallel buffer blank, the baseline was aligned with the y-axis, inter-step correlation by alignment against dissociation was performed, and the data were smoothed by a Savitzky-Golay filter in the data analysis software. The processed data were fitted using a 1:1 Langmuir binding model with R\hat{ }2 as a measurement of fitting accuracy. The Results are summarised in. Avidity was observed as FAP is naturally a dimeric antigen, and the limited detection by Octet with these molecules has been reached. Species cross-reactivity has been confirmed for all test samples.

[17] = molecular target: T7, mouse LTBR on cells (4T1 tumor cell line; primary mouse lung fibroblasts) (mouse, UniProt P50284 31-415); assay: cell-based or functional assay
T7 sequence (P50284 31-415): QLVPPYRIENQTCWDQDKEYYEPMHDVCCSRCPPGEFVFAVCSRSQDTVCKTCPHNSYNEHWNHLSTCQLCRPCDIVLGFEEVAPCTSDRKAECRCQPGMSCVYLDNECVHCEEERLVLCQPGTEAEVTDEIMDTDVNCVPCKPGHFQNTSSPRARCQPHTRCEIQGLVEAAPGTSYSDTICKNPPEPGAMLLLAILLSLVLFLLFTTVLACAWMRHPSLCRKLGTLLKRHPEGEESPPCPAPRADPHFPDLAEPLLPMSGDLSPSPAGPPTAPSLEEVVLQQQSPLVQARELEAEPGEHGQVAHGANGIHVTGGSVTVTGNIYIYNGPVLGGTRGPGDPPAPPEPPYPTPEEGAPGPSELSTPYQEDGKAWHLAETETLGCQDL

[18] = molecular target: T7, mouse LTBR on cells (4T1 tumor cell …); assay: cell-based or functional assay; remark: listed apart in the source

B1: Clone 4.7 (bispecific antibody, human IgG1, kappa, L234A L235A)
heavy 1: not shown
heavy 2: QVQLVQSGAEVKKPGASVKVSCKASGYTFTGYYMNWVRQAPGQGLEWMGWINPQSGDVNFAQKFQGRVTMTRDTSISTAYMELSRLRSDDTAVYYCARQFRGYSYGYGMDVWGQGTTVTVSSASTKGPSVFPLAPSSKSTSGGTAALGCLVKDYFPEPVTVSWNSGALTSGVHTFPAVLQSSGLYSLSSVVTVPSSSLGTQTYICNVNHKPSNTKVDKKVEPKSCDKTHTCPPCPAPEAAGGPSVFLFPPKPKDTLMISRTPEVTCVVVDVSHEDPEVKFNWYVDGVEVHNAKTKPREEQYNSTYRVVSVLTVLHQDWLNGKEYKCKVSNKALPAPIEKTISKAKGQPREPQVCTLPPSRDELTKNQVSLSCAVKGFYPSDIAVEWESNGQPENNYKTTPPVLDSDGSFFLVSKLTVDKSRWQQGNVFSCSVMHEALHNHYTQKSLSLSPG
light: not shown
notes: FAP:LTBR 2:1 heterodimer of FAP mAb (clone 3.7) with C terminal fused LTBR scFv (clone 2.3), human IgG1 LALA
EC50 [1]: 0.34 nM
CCL19 upregulation, HCC1187:CAF Co-culture EC50 [2]: 0.073 nM
chemokine (CCL5) induction in RPMI-7951 EC50 [3]: 0.0096 nM
HepG2 Reporter assay, HepG2:FAP-CHO-K1 Co-culture EC50 [4]: 0.023 nM
Kd [5]: 0.15 nM
Kd [6]: 0.16 nM
EC50 [7]: 6 nM
ICAM1 upregulation in CAFs monoculture assay EC50 [8]: 0.012 nM
Kd [9]: 0.4 nM
Kd [10]: 1.8 nM
HCC-1187:RPMI7951 (cis-activation) co-culture assay CCL5 read-out EC50 [11]: 0.01 nM

B2: Clone 4.1 (bispecific antibody, human IgG1, kappa, L234A L235A)
heavy 1: not shown
heavy 2: QLQLQESGPGLVKPSETLSLTCTVSGGSISSSTYYWGWIRQPPGKGLEWIGSIFYSGNTYYNPSLKSRVTISVDTSKNHFSLKLSSVTAADTAVYYCAREIIEPRPGYFDYWGQGTLVTVSSASTKGPSVFPLAPSSKSTSGGTAALGCLVKDYFPEPVTVSWNSGALTSGVHTFPAVLQSSGLYSLSSVVTVPSSSLGTQTYICNVNHKPSNTKVDKKVEPKSCDKTHTCPPCPAPEAAGGPSVFLFPPKPKDTLMISRTPEVTCVVVDVSHEDPEVKFNWYVDGVEVHNAKTKPREEQYNSTYRVVSVLTVLHQDWLNGKEYKCKVSNKALPAPIEKTISKAKGQPREPQVCTLPPSRDELTKNQVSLSCAVKGFYPSDIAVEWESNGQPENNYKTTPPVLDSDGSFFLVSKLTVDKSRWQQGNVFSCSVMHEALHNHYTQKSLSLSPG
light: not shown
notes: FAP:LTBR 1:1 heterodimer of LTBR VHH (clone 1.6) paired with FAP Fab (clone 3.5), human IgG1 LALA
EC50 [12]: 0.28 nM
Kd [13]: 4 nM
CCL19 upregulation, HCC1187:CAF Co-culture EC50 [2]: 0.055 nM
chemokine (CCL5) induction in RPMI-7951 EC50 [3]: 0.09 nM
HepG2 Reporter assay, HepG2:FAP-CHO-K1 Co-culture EC50 [4]: 0.07 nM
ICAM1 upregulation in CAFs monoculture assay EC50 [8]: 0.026 nM
EC50 [14]: 29 nM
Kd [15]: 7.7 nM
HCC-1187:RPMI7951 (cis-activation) co-culture assay CCL5 read-out EC50 [11]: 0.052 nM
HCC-1187:RPMI7951 (trans-activation) co-culture assay, CCL19 Read-out EC50 [11]: 0.084 nM
Kd [16]: 0.182 nM

B3: Clone 4.14 (antibody, V domains shown)
VH: QVQLKESGPGLVQPSQTLSLTCTVSGFSLTTYSVHWVRQHSGKSLEWMGRMWTDGDTSYNSAFTSRLSISRDTSKSQVFLKMNSLQTEDTGTYYCARGYWYFDFWGPGTMVTVSS
VL: DVQMTQSPSYLAASPGESVSIRCKASKSISNNLAWYQEKPGKANKLLIHSGSTLQSGTPSRFSGSGSGTDFTLTIRSLEFEDFAVYYCQQYNEYPYTFGAGTKLELK
ICAM1 induction in PMLF EC50 [17]: 0.063 nM
ICAM1 induction in PMLF EC50, 4.14 + cross-linking antibody [17]: 0.021 nM
4T1:CHO-FAP co-culture CCL5 read-out EC50 [18]: 0.28 nM
4T1:CHO-FAP co-culture CCL5 read-out EC50, 4.14 + cross-linking antibody [18]: 0.096 nM
4T1 monoculture CCL5 read-out EC50 [18]: 0.47 nM
4T1 monoculture CCL5 read-out EC50, 4.14 + cross-linking antibody [18]: 0.14 nM
